# How the values were obtained:
# CXCL12 levels [1] = conditions: humans; cited from earlier work
# CXCL12 levels [2] = tested on: CXCL12 levels; parameters: method as in PMID 33595155, PMID 38819698; conditions: mice, in vivo application; cited from earlier work
# [3] = biological target: hCCR3 C-terminally tagged with SmBiT (chemokine receptor screen) (human) (UniProt P51677)
# CCR3 = CCR3 (Homo sapiens, UniProt P51677); assay: NanoBiT β-arrestin2 recruitment to CCR3, concentration-response; format: cell-based; conditions: HEK293T, NanoBiT
# Method: The pharmacological modulation of all chemokine receptors by VUF16840 was performed according to an established method.[8]^,[23]^,[39] Briefly, β-arrestin2 recruitment to chemokine receptors in response to 1 μM VUF16840 or positive control chemokines was monitored by NanoLuc complementation assay (NanoBiT, Promega). Four hours after transfection, cells were harvested, incubated for 25 minutes at 37 °C with furimazine and distributed into a white 96-well plates (1 × 10^5 cells per well). β-Arrestin2 recruitment was then detected for 20 minutes upon treatment with 1 μM VUF16840 (or increasing concentrations ligand for experiments with CC chemokine receptor [CCR3]) using the Mithras LB940 luminometer (Berthold Technologies). To evaluate the antagonist properties of VUF16840, full agonists of each receptor were added after the 20-minute incubation with VUF16840. Signal from wells treated with full agonist only was defined as 100% activity and signals from wells treated with no agonist were used to set 0% activity.
# Supplemental Figure 5 – Modulation of CCR3 receptor by VUF16840. Recruitment of β-arrestin2 towards CCR3 chemokine receptor was measured using a NLuc complementation assay in HEK293T cells. The concentration-dependent activation of the CCR3 was determined for VUF16840 and the endogenous agonist CCL13. All values depict the mean ± SD of ≥ 3 experiments.
# ACKR3 [4] = biological target: T1, ACKR3 (Homo sapiens, UniProt P25106); assay: BRET β-arrestin1 recruitment to ACKR3 in HEK293T cells; format: cell-based; conditions: * VUF16840 as inverse agonist
# T1 construct: expressed in transfected cells; host or cells: HEK293T
# Method: (§1) For bioluminescence resonance energy transfer (BRET) experiments, several BRET acceptor constructs were used that consist of the pcDEF3 vector with either GRK2 (NCBI: NM_174710.2), β-arrestin1 (NCBI: NM_174243.3), or β-arrestin2 (NCBI: XM_005220181.4) fused at the C-terminus with a SpeI/NotI linker to mVenus (NCBI: KP666136.1), as previously described.[34]
# (§2) For 1·10^6 HEK293T cells, a transfection mix consisting of 2 μg plasmid DNA, 12 μg linear PEI in a total volume of 200 μL 150 mM NaCl was made and thoroughly vortexed. The transfection mix was incubated for 15 minutes and consequently added to a cell suspension with a final concentration of 3·10^5 cells/mL. For functional studies this cell suspension was immediately transferred to a poly-L-lysine-coated white 96-well plate, with 3·10^4 cells per well. […] For BRET-based membrane localization experiments, the 2 μg plasmid DNA consisted of ACKR3-NL (0.05 μg), mVenus-CAAX (0.25 μg), and pcDEF3 vector DNA without insert (1.7 μg).
# (§3) Mean pIC50 values were determined by averaging fitted values from individual experiments. Graphs depict the pooled data of all experiments. Similarly, sigmoidal, ligand-induced concentration-dependent activation or inhibition of the proximity between ACKR3 and the protein of interest was analyzed using GraphPad Prism 8, by fitting a 3-parameter concentration-response model to the data, to determine pEC50/pIC50 values. Mean pEC50 values and pIC50 values were determined by averaging fitted values from individual experiments. Graphs depict the pooled data of all experiments, for which values are normalized, per experiment, to the fold difference compared with basal signal.
# HEK293T cells were stimulated with increasing concentrations of VUF15485 or VUF16840 only (A–D), or increasing concentrations of VUF16840 in the presence of 100 nM VUF15485 (E–H). The resulting proximity between ACKR3 and β-arrestin1 (A, E), GRK2 (B, F), or Rab5a (C, G) was determined by bioluminescence resonance energy transfer. Furthermore, an interaction between clathrin A and β-arrestin2 was measured by NLuc complementation, as was determined by quantifying the relative light units (D, H). Depicted data is normalized as fold-basal and represents the mean ± SD of N experiments with triplicate measurements per experiment. N is specified in Supplemental Table 1.
# ACKR3 [5] = biological target: T1, ACKR3; assay: BRET β-arrestin2 recruitment to hACKR3 in HEK293T cells; format: cell-based; conditions: * VUF16840 as inverse agonist; mean ± SD (N)
# Method: as §1, §2, §3
# [6] = biological target: hACKR3-SmBiT (HA-tagged ACKR3 C-terminally fused to SmBiT) (human) (UniProt P25106)
# [7] = biological target: N-terminally NLuc-tagged hACKR3 (human) (UniProt P25106)
# Sequence of N-terminally NLuc-tagged hACKR3 (human) (P25106 whole entry): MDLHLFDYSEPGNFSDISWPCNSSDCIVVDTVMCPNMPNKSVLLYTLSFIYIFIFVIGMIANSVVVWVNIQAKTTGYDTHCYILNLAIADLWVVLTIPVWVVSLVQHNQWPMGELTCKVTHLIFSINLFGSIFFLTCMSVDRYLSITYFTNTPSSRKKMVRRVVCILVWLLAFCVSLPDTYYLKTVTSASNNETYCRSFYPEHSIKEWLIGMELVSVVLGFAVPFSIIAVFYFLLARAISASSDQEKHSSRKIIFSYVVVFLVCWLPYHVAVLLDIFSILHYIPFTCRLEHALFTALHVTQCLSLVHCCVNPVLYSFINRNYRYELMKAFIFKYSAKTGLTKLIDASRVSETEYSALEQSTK
# T1 sequence (P25106 whole entry): as above
# Sequence of CCR3 (P51677 whole entry): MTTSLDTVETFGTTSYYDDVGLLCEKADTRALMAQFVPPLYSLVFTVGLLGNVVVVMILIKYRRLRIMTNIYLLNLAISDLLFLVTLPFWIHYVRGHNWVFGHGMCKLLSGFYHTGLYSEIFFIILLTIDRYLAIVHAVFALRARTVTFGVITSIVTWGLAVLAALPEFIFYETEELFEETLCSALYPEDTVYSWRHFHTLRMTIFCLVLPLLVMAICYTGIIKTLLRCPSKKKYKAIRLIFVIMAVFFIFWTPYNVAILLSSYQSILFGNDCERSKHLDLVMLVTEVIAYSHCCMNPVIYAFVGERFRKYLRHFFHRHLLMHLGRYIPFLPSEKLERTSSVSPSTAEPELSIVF
# Sequence of CCR3 (P32121 whole entry partner): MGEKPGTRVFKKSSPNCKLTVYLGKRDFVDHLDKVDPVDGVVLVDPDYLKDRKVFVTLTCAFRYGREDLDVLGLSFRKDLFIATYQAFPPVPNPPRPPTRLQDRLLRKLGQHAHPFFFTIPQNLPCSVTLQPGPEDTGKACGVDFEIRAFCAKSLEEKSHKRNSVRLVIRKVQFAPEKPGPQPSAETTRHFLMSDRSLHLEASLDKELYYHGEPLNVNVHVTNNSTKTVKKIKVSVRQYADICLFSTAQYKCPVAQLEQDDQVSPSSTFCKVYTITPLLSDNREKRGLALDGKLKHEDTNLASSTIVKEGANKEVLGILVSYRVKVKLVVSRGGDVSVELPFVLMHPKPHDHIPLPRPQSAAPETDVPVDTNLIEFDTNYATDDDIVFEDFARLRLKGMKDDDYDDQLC
# Sequence of Human recombinant CXCL12 (P48061 22-93): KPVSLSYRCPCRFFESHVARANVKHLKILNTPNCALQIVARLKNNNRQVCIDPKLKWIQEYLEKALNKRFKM
# Sequence of hACKR3-SmBiT (HA-tagged ACKR3 C-terminally fused to SmBiT) (human) (P25106 whole entry, the tested form may be a part): as the sequence (P25106 whole entry) above
# Sequence of hCCR3 C-terminally tagged with SmBiT (chemokine receptor screen) (human) (P51677 whole entry): as the sequence (P51677 whole entry) above
# Sequence of CCL13 (Q99616 17-98): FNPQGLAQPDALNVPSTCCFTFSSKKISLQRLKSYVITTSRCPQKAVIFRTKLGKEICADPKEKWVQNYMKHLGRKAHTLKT
compound,measurement,setting,value
O=C(N[C@H]1CCN(CC2CC2)C[C@@H]1C(=O)NC1(c2ncccn2)CC1)c1cc(-c2ccc(F)cc2F)on1 [ACT1004-1239],plasma CXCL12 levels,CXCL12 levels [1],increase
same,plasma and brain CXCL12 levels,CXCL12 levels [2],increase
CCL13 (from UniProt Q99616 17-98) (ligand),"β-arrestin2 recruitment to CCR3 (NanoBiT, HEK293T), EC50 of CCL13",[3],0.063 µM
CCL13: endogenous ligand (agonist) of CCR3,"pEC50, activation of CCR3 (β-arrestin2 recruitment)",CCR3,7.2 ± 0.1
same,EC50,"CCR3; read-out: EC50, activation of CCR3 (β-arrestin2 recruitment)",0.063 µM
"CXCL11: human recombinant chemokine, endogenous agonist of ACKR3",β-arrestin1 BRET pEC50,ACKR3 [4],8.1 ± 0.1 (6)
same,β-arrestin2 BRET pEC50,ACKR3 [5],8.2 ± 0.1 (3)
Human recombinant CXCL12 (from UniProt P48061 22-93) (ligand),"β-arrestin2 recruitment to hACKR3 (NanoBiT, HEK293T, concentration-response after 30 minutes), EC50 of CXCL12",[6],0.0016 µM
same,"bystander BRET between ACKR3-NLuc (C-terminal NLuc, not the construct of m2) and plasma membrane mVenus-CAAX in HEK293T cells (receptor internalization), pIC50 of CXCL12",[7],9.1 pIC50

# Reference: paper PMC12799421, “Inhibition of constitutive activity of the atypical chemokine receptor 3 by the small-molecule inverse agonist VUF16840” (Molecular Pharmacology, 2025)
